B1: PHD finger protein 1 (Homo sapiens), O43189 (parent)
chain: MAQPPRLSRSGASSLWDPASPAPTSGPRPRLWEGQDVLARWTDGLLYLGTIKKVDSAREVCLVQFEDDSQFLVLWKDISPAALPGEELLCCVCRSETVVPGNRLVSCEKCRHAYHQDCHVPRAPAPGEGEGTSWVCRQCVFAIATKRGGALKKGPYARAMLGMKLSLPYGLKGLDWDAGHLSNRQQSYCYCGGPGEWNLKMLQCRSCLQWFHEACTQCLSKPLLYGDRFYEFECCVCRGGPEKVRRLQLRWVDVAHLVLYHLSVCCKKKYFDFDREILPFTSENWDSLLLGELSDTPKGERSSRLLSALNSHKDRFISGREIKKRKCLFGLHARMPPPVEPPTGDGALTSFPSGQGPGGGVSRPLGKRRRPEPEPLRRRQKGKVEELGPPSAVRNQPEPQEQRERAHLQRALQASVSPPSPSPNQSYQGSSGYNFRPTDARCLPSSPIRMFASFHPSASTAGTSGDSGPPDRSPLELHIGFPTDIPKSAPHSMTASSSSVSSPSPGLPRRSAPPSPLCRSLSPGTGGGVRGGVGYLSRGDPVRVLARRVRPDGSVQYLVEWGGGGIF
partner: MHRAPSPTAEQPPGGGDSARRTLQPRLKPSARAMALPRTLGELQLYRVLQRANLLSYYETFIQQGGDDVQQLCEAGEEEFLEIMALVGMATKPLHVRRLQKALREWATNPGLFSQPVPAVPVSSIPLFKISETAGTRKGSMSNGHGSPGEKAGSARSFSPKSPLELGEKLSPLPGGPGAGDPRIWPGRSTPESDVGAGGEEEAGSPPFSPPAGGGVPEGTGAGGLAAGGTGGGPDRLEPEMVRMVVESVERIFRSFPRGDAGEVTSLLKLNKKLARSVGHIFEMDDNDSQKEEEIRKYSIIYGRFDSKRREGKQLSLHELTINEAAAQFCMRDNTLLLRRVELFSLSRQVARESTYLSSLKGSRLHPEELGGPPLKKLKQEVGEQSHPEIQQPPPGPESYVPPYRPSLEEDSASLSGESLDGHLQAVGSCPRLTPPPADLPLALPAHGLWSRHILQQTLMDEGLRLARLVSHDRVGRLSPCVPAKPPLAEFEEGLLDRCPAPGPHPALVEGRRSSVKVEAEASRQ
B2: Paraneoplastic antigen Ma2 (Homo sapiens), Q9UL42 (parent)
chain: MALALLEDWCRIMSVDEQKSLMVTGIPADFEEAEIQEVLQETLKSLGRYRLLGKIFRKQENANAVLLELLEDTDVSAIPSEVQGKGGVWKVIFKTPNQDTEFLERLNLFLEKEGQTVSGMFRALGQEGVSPATVPCISPELLAHLLGQAMAHAPQPLLPMRYRKLRVFSGSAVPAPEEESFEVWLEQATEIVKEWPVTEAEKKRWLAESLRGPALDLMHIVQADNPSISVEECLEAFKQVFGSLESRRTAQVRYLKTYQEEGEKVSAYVLRLETLLRRAVEKRAIPRRIADQVRLEQVMAGATLNQMLWCRLRELKDQGPPPSFLELMKVIREEEEEEASFENESIEEPEERDGYGRWNHEGDD
B3: Histone-lysine N-methyltransferase SMYD1 (Homo sapiens), Q8NB12 (parent)
chain: MTIGRMENVEVFTAEGKGRGLKATKEFWAADIIFAERAYSAVVFDSLVNFVCHTCFKRQEKLHRCGQCKFAHYCDRTCQKDAWLNHKNECSAIKRYGKVPNENIRLAARIMWRVEREGTGLTEGCLVSVDDLQNHVEHFGEEEQKDLRVDVDTFLQYWPPQSQQFSMQYISHIFGVINCNGFTLSDQRGLQAVGVGIFPNLGLVNHDCWPNCTVIFNNGNHEAVKSMFHTQMRIELRALGKISEGEELTVSYIDFLNVSEERKRQLKKQYYFDCTCEHCQKKLKDDLFLGVKDNPKPSQEVVKEMIQFSKDTLEKIDKARSEGLYHEVVKLCRECLEKQEPVFADTNIYMLRMLSIVSEVLSYLQAFEEASFYARRMVDGYMKLYHPNNAQLGMAVMRAGLTNWHAGNIEVGHGMICKAYAILLVTHGPSHPITKDLEAMRVQTEMELRMFRQNEFMYYKMREAALNNQPMQVMAEPSNEPSPALFHKKQ
B4: Keratin-associated protein 3-2 (Homo sapiens), Q9BYR7 (parent)
chain: MDCCASRSCSVPTGPATTICSSDKSCRCGVCLPSTCPHTVWLLEPICCDNCPPPCHIPQPCVPTCFLLNSCQPTPGLETLNLTTFTQPCCEPCLPRGC

Variants of: B1
Conditions: with nab2_human NAB2, Q15742

Row | Variant | effect of a mutation on the interaction
1 | S14L | with no effect

Variants of: B2
Conditions: with sdcb1_human SDCBP

Row | Variant | effect of a mutation on the interaction
2 | MALALLEDWCRIMSVDEQKSLMVTGIPADFEEAEIQEVLQETLKSLGRYRLLGKIFRKQENANAVLLELLEDTDVSAIPSEVQGKGGVWKVIFKTPNQDTEFLERLNLFLEKEGQTVSGMFRALGQEGVSPATVPCISPELLAHLLGQAMAHAPQPLLPMRYRKLRVFSGSAVPAPEEESFEVWLKQATEIVKEWPVTEAEKKRWLAESLRGPALDLMHIVQADNPSISVEECLEAFKQVFGSLESRRTAQVRYLKTYQEEGEKVSAYVLRLETLLRRAVEKRAIPRRIADQVRLEQVMAGATLNQMLWCRLRELKDQGPPPSFLELMKVIREEEEEEASFENESIEEPEERDGYGRWNHEGDD [E186K] | with no effect

Variants of: B2
Conditions: with psa1_human PSMA1, P25786
psa1_human PSMA1, P25786, sequence (P25786 whole entry): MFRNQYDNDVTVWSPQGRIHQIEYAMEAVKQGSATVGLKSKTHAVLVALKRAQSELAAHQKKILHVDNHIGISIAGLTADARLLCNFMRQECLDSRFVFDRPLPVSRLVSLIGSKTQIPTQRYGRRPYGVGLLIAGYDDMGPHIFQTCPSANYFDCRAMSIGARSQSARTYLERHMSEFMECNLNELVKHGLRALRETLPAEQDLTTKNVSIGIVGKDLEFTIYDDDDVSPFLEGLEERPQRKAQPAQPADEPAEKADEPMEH

Row | Variant | effect of a mutation on the interaction
3 | MALALLEDWCRIMSVDEQKSLMVTGIPADFEEAEIQEVLQETLKSLGRYRLLGKIFRKQENANAVLLELLEDTDVSAIPSEVQGKGGVWKVIFKTPNQDTEFLERLNLFLEKEGQTVSGMFRALGQEGVSPATVPCISPELLAHLLGQAMAHAPQPLLPMRYRKLRVFSGSAVPAPEEESFEVWLKQATEIVKEWPVTEAEKKRWLAESLRGPALDLMHIVQADNPSISVEECLEAFKQVFGSLESRRTAQVRYLKTYQEEGEKVSAYVLRLETLLRRAVEKRAIPRRIADQVRLEQVMAGATLNQMLWCRLRELKDQGPPPSFLELMKVIREEEEEEASFENESIEEPEERDGYGRWNHEGDD [E186K] | with no effect

Variants of: B3
Conditions: with bhe40_human BHLHE40, O14503
bhe40_human BHLHE40, O14503, sequence (O14503 whole entry): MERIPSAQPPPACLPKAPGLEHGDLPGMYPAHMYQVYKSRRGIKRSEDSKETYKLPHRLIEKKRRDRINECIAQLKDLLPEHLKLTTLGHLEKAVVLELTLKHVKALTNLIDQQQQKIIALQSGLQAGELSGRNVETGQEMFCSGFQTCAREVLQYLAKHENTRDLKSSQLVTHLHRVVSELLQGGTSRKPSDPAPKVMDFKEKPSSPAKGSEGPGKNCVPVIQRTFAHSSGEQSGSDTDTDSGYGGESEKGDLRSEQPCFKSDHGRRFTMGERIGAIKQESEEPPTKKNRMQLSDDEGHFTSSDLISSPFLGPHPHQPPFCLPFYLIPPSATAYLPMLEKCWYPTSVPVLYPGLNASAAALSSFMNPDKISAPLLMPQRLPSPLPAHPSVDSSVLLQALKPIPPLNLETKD

Row | Variant | effect of a mutation on the interaction
4 | MTIGRMENVEVFTAEGKGRGLKATKEFWAADIIFAERAYSAVVFDSLVNFVCHTCFKRQEKLHRCGQCKFAHYCDRTCQKDAWLNHKNECSAIKRYGKVPNENIRLAARIMWRVEREGTGLTEGCLVSVDDLQNHVEHFGEEEQKDLRVDVDTFLQYWPPQSQQFSMQYISHIFGVINCNGFTLSDQRGLQAVGVGIFPNLGLVNHDCWPNCTVIFNNGNHEAVKSMFHTQMRIELRALGKISEGEELTVSYIDFLNVSEERKRQLKKQYYFDCTCEHCQKKLKDDLFLGVKDNPKPSQEVVKEMIQFSKDTLEKIDKARSEGLYHEVVKLCRECLEKQEPVFADTNIYMLRMLSIVSEVLSYLQAFEEASFYARRMVDGYMKLYHPNNAQLGMAVMRAGLTNWHAGNIEVGHGMICKAYAILLVTHGPSHPITKDLEAMWVQTEMELRMFRQNEFMYYKMREAALNNQPMQVMAEPSNEPSPALFHKKQ [R441W] | with no effect

Variants of: B4
Conditions: with yipf3_human YIPF3, Q9GZM5
yipf3_human YIPF3, Q9GZM5, sequence (Q9GZM5 whole entry): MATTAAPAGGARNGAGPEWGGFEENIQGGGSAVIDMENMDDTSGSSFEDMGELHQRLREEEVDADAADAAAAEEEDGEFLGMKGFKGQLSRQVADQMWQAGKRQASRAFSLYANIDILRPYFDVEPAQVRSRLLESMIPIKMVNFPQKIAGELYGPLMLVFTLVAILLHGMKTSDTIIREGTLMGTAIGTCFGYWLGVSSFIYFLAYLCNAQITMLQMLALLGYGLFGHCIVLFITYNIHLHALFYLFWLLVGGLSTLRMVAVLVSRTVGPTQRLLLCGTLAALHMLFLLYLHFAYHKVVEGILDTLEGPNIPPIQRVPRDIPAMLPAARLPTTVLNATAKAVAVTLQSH

Row | Variant | effect of a mutation on the interaction
5 | MDCCASRGCSVPTGPATTICSSDKSCRCGVCLPSTCPHTVWLLEPICCDNCPPPCHIPQPCVPTCFLLNSCQPTPGLETLNLTTFTQPCCEPCLPRGC | with no effect

Variants of: B4
Conditions: with hxa1_human HOXA1, P49639
hxa1_human HOXA1, P49639, sequence (P49639 whole entry): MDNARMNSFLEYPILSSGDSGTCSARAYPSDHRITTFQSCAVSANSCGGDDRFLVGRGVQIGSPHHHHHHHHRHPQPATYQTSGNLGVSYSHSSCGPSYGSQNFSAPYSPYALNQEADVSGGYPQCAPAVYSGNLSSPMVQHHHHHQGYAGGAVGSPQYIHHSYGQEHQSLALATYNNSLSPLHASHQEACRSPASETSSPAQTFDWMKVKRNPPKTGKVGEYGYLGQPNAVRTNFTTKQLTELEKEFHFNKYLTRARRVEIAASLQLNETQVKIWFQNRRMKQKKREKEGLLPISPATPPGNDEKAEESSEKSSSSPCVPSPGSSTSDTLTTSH

Row | Variant | effect of a mutation on the interaction
6 | MDCCASRGCSVPTGPATTICSSDKSCRCGVCLPSTCPHTVWLLEPICCDNCPPPCHIPQPCVPTCFLLNSCQPTPGLETLNLTTFTQPCCEPCLPRGC | with no effect

Variants of: B4
Conditions: with otx1_human OTX1, P32242
otx1_human OTX1, P32242, sequence (P32242 whole entry): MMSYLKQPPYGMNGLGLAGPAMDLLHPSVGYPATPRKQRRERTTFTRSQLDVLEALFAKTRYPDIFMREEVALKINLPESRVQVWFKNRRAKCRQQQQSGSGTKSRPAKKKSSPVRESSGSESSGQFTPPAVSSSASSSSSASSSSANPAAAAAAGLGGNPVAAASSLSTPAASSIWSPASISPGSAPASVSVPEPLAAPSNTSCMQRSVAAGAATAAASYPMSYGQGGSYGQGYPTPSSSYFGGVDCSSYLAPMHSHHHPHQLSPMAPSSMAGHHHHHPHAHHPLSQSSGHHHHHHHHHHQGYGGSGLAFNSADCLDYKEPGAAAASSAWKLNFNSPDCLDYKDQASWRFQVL

Row | Variant | effect of a mutation on the interaction
7 | MDCCASRGCSVPTGPATTICSSDKSCRCGVCLPSTCPHTVWLLEPICCDNCPPPCHIPQPCVPTCFLLNSCQPTPGLETLNLTTFTQPCCEPCLPRGC | with no effect

— IntAct's records for PubMed 31515488
